Tests used:
[1] = substrate: CC(=O)N[C@@H](CC(=O)O)C(=O)N[C@@H](C)C(=O)N[C@@H](CC(=O)O)C(=O)N[C@@H](CCC(=O)O)C(=O)N[C@@H](Cc1ccc(OP(=O)(O)O)cn1)C(=O)N[C@@H](CC(C)C)C(N)=O; assay: (§1) Binding affinity constant against mammalian protein-tyrosine phosphatase 1 (PTP1)
[2] = substrate: CC(=O)N[C@@H](CC(=O)O)C(=O)N[C@@H](C)C(=O)N[C@@H](CC(=O)O)C(=O)N[C@@H](CCC(=O)O)C(=O)N[C@@H](Cc1ccc(OP(=O)(O)O)cc1)C(=O)N[C@@H](CC(C)C)C(N)=O; assay: as §1

B1: Tyrosine-protein phosphatase non-receptor type 1 (Homo sapiens), P18031 (protein)
chain: MEMEKEFEQIDKSGSWAAIYQDIRHEASDFPCRVAKLPKNKNRNRYRDVSPFDHSRIKLHQEDNDYINASLIKMEEAQRSYILTQGPLPNTCGHFWEMVWEQKSRGVVMLNRVMEKGSLKCAQYWPQKEEKEMIFEDTNLKLTLISEDIKSYYTVRQLELENLTTQETREILHFHYTTWPDFGVPESPASFLNFLFKVRESGSLSPEHGPVVVHCSAGIGRSGTFCLADTCLLLMDKRKDPSSVDIKKVLLEMRKFRMGLIQTADQLRFSYLAVIEGAKFIMGDSSVQDQWKELSHEDLEPPPEHIPPPPRPPKRILEPHNGKCREFFPNHQWVKEETQEDKDCPIKEEKGSPLNAAPYGIESMSQDTEVRSRVVGGSLRGAQAASPAKGEPSLPEKDEDHALSYWKPFLVNMCVATVLTAGAYLCYRFLFNSNT
For B1, the Km [1] was 210 µM and the Km [2] was 3.6 µM.

— ChEMBL document CHEMBL1134058, “Phospho-Azatyrosine, a less effective protein-tyrosine phosphatase substrate than phosphotyrosine” (Bioorg Med Chem Lett, 2001)
